Measured values taken from patent publication US20190194358A1 (ARIZONA BOARD OF REGENTS A BODY CORPORATE OF THE STATE OF …, published 2019).
Read-outs that look alike come from different tables or passages of the source. Ends that are not written are not given here.

What was measured:
[1] = target: T1, Tumor Necrosis Factor-alpha (UniProt P01375 77-233); test: SPR, kinetic fits of sensorgrams
T1 construct: Immobilised on pipette tips or SPR chips (amine coupling or biotin capture); also called TNF-α; TNF-alpha
T1 sequence (P01375 77-233 limits assumed): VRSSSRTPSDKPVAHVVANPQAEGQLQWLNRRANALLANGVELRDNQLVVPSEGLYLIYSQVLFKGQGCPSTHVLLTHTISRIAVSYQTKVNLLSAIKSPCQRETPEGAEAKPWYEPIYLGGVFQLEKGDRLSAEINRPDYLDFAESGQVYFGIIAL

[2] = target: T1, Tumor Necrosis Factor-alpha; test: SPR (Biacore A100), TNF-α captured, equilibrium response over a concentration series
Method: (§1) Point-mutant libraries were prepared in 96-well stock plates From the stock plate, peptides were diluted to 50 μM concentration in Biacore HBS-EP buffer (GE Healthcare, Piscataway, N.J.) containing 1 mg/ml carboxymethyl-dextran (Sigma-Aldrich, St. Louis, Mo.) to reduce non-specific binding to the CM-5 SPR chip surface. TNF-αt was captured on a CM-5 chip surface at different capture levels on spots 1, 2, 4, and 5 across all four flow cells corresponding to a 40-200 RU range of predicted Rₘₐₓ binding responses. Spot 3 contained only immobilized neutravidin and served as a reference spot.
(§2) Purified point-mutant affinities were measured on the Biacore A100 using SPR equilibrium binding response across a series of peptide concentrations on an SPR chip with TNF-α captured as described above.

[3] = target: T1, Tumor Necrosis Factor-alpha; test: SPR-derived binding energies
[4] = target: T1, Tumor Necrosis Factor-alpha; test: SPR; reference TNF1 lead peptide
Method: as §1, §2

[5] = target: T1, Tumor Necrosis Factor-alpha; test: fluorescence anisotropy; fluorescence anisotropy
[6] = target: T1, Tumor Necrosis Factor-alpha; test: SPR, kinetic fits of sensorgrams (printed 'kon' in a sentence on the off-rate)
[7] = target: T1, Tumor Necrosis Factor-alpha; test: SPR (Biacore A100), TNF-α captured, equilibrium response over a concentration series; remark: listed apart in the source
Method: as §1, §2

[8] = target: T1, Tumor Necrosis Factor-alpha; test: SPR, kinetic fits of several sensorgrams; Kd from kinetic fits, not equilibrium responses
[9] = target: T1, Tumor Necrosis Factor-alpha; test: SPR (Biacore A100), TNF-α captured, equilibrium response over a concentration series; the cell prints '93', read as 9.3 (decimal point lost)
Method: as §1, §2

transferrin [10] = target: T2, transferrin (human, UniProt P02787 20-698); test: SPR (Biacore A-100), biotinylated transferrin captured on Neutravidin, unpurified peptide injected for 60 s
T2 construct: also called TRF; pooled human transferrin (Sigma)
T2 sequence (P02787 20-698 limits assumed): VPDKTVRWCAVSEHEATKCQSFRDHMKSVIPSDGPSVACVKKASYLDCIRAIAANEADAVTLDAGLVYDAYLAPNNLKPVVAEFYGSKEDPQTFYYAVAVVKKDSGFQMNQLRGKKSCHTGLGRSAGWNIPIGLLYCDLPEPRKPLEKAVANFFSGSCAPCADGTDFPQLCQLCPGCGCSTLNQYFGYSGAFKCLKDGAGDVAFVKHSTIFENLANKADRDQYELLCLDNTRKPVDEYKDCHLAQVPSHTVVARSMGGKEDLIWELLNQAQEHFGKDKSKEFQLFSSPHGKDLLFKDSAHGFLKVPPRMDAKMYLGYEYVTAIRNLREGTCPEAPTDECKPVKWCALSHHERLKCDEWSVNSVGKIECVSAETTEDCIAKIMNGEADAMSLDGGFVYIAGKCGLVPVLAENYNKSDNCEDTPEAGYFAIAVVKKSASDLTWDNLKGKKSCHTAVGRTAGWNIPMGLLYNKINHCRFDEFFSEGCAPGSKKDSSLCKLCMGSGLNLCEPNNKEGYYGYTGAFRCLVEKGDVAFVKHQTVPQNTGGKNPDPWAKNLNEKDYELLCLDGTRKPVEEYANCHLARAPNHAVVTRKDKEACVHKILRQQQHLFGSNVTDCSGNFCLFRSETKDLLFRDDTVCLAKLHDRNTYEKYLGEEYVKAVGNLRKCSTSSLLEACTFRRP

transferrin [11] = target: T2, transferrin; test: as above; remark: listed apart in the source
transferrin [12] = target: T2, transferrin; test: SPR (Biacore T100), transferrin immobilised
From the text: (§3) Affinity plots were generated for each peptide and fit using a steady state affinity model.

transferrin [13] = target: T2, transferrin; test: SPR (Biacore T100), transferrin immobilised (9758 RU), steady state affinity fit
From the text: as §3

transferrin [14] = target: T2, transferrin; test: reference TRF26 lead peptide
transferrin [15] = target: T2, transferrin; test: affinity characterisation of Example 29 (SPR; format for the purified peptides not stated)
albumin = test: SPR
[16] = target: T1, Tumor Necrosis Factor-alpha; test: SPR (Biacore T-100), TNF-α amine-coupled to a CM5 chip, synbody concentration series
Method: Candidate TNF-α binding synbodies were screened by surface plasmon resonance (SPR) on a Biacore T-100 SPR instrument to verify binding for TNF-α. A CM5 chip was activated using standard amine coupling chemistry and TNF-α was immobilized. Each synbody was prepared in HBS—N buffer with excess carboxymethyl dextran added to the running buffer to minimize non-specific binding to the chip surface.

transferrin [17] = target: T2, transferrin; test: SPR (Biacore A-100), biotinylated transferrin captured on Neutravidin, unpurified peptide injected for 60 s; remark: listed apart in the source
transferrin [18] = target: T2, transferrin; test: SPR (Biacore A-100), purified peptide at several concentrations, equilibrium
From the text: A Biacore A-100 Surface Plasmon Resonance (SPR) system was used to measure the binding response of each peptide to several different target proteins immobilized on a gold surface. The A-100 has four different flow cells and within each flow cell are five addressable spots. Therefore four different proteins and a negative control reference can be used per flow cell. […] Sensorgrams are collected from each immobilized protein, so a binding profile for each analyte versus each of the protein targets is generated for each injection. Target proteins were immobilized using a biotin capture approach in which a CM5 chip was activated using standard amine coupling chemistry and Neutravidin was covalently coupled to the chip. Each biotinylated protein was injected over a single spot and the amount of protein captured was measured. In this manner four proteins were immobilized per flow cell. In this example, the same four proteins were captured in all four flow cells for this experiment.

transferrin [19] = target: T2, transferrin; test: SPR (Biacore A-100), biotinylated transferrin captured on Neutravidin, unpurified peptide injected for 60 s; remark: listed apart in the source
transferrin [20] = target: T2, transferrin; test: SPR, transferrin immobilised, Kd from kinetics
From the text: Flow rates and contact times are adjusted as necessary to provide the surface concentration of target desired for the intended application, and may vary by target. In general, for evaluating whether binding occurs, it is preferable to immobilize a relatively large quantity of target, and higher flow rates and/or longer contact times may be used. For determining kinetics, it is preferable to limit the amount of target immobilized so as to minimize rebinding and avidity effects, and lower flow rates and/or contact times may be used.

transferrin [21] = target: T2, transferrin; test: SPR (Biacore A-100), biotinylated transferrin captured on Neutravidin, unpurified peptide injected for 60 s; remark: listed apart in the source
transferrin [22] = target: T2, transferrin; test: as above; remark: listed apart in the source

FERDPLMMPWSFLQSRQGSC [TNF1 lead peptide]
koff [1]: 1.6 s⁻¹ | Binding ΔG [2]: -21.8 kJ/mol | Kd [2]: 160 µM

FERSYLKMPWKFLQSRQGSC [TNF1-opt (D4S+P5Y+M7K+S11K quadruple mutant)]
difference in observed binding energy relative to D4S+P5Y+S11K [3]: -3.93 kJ/mol | difference in observed binding energy relative to P5Y+M7K [3]: -7.24 kJ/mol | difference in observed binding energy relative to P5Y+S11K [3]: -6.95 kJ/mol | Kd Fold-Change Relative to Lead [4]: 100 fold | Kd [5]: 1.1 µM | koff [6]: 0.2 s⁻¹ | Kd [7]: 1.6 µM | Observed Binding ΔG [7]: -33.3 kJ/mol | Kd [8]: 0.7 µM

FERYPLMMPWKFLQSRQGSC [TNF1 D4Y+S11K double mutant]
Kd Fold-Change Relative to Lead [4]: 17 fold | Observed Binding ΔG [7]: -27.9 kJ/mol | Kd [9]: 9.3 µM

TEDNDYMVVSMVVTMEPGSC (Unpurified library peptide) [peptide of FIG. 60L]
binding result (transferrin [10]): binds

AMMRMDMAGLNKIVFHQGSC (Unpurified library peptide) [peptide of FIG. 60I]
binding result (transferrin [11]): binds

B1: TBPM023 (peptide)
peptide: AHKVVPQRQMRHAYSRYGSC
notes: Clone from mRNA display on a doped TRF26 library; also called TBPMO23
fold improvement in affinity relative to TRF26 (transferrin [12]): > 10 fold | Kd (transferrin [13]): 11.6 µM

B2: TRF26 P6Y+H12F double mutant (peptide)
peptide: AHKVVYQRQIRFAYNRYGSC
notes: also called P6Y + 1112F (so in the source)
Kd Fold-Change Relative to Lead (transferrin [14]): 190 fold | Kd (transferrin [15]): 0.5 µM

B3: linker-optimized BP1/BP2 DNA-linked synbody (BP1 on the template strand, BP2 at position 13 from the 3' end of the variable strand) (designed binder)
peptide 1: GTEKGTSGWLKTGSC
peptide 2: EGEWTEGKLSLRGSC
modifications: not fully specified (some residues); cysteine pairing not given here; also: DNA strands hybridised
notes: The two peptide-DNA conjugates are held together by hybridisation of the DNA strands; also called Gal80 synbody; BP1-BP2 containing synbody
Kd relative to the Kd for gal80 (fold) (albumin): > 1000 fold

B4: TNF1-TNF4-KC-stBu (designed binder)
peptide 1: MKSIIPMSVAQHQGPIKGSG
peptide 2: FMNYPIKVPILVVPIGRGSG
modifications: not fully specified (C-terminus, bridges); also: chain 1 C-terminus on Lys α-amine, chain 2 C-terminus on same Lys ε-amine (branched dimer)
notes: Lysine linker followed by Cys(StBu); also called TNFa1-TNFa 4- KC(stBu)
binding result [16]: no binding

DNSRRSAKQRIFMHVDLGSC (Unpurified library peptide) [peptide of FIG. 60G]
binding result (transferrin [17]): binds

B5: TRF101 (peptide)
peptide: ARDLLIQKNSGQDVDHRGSC
notes: Screened unpurified, then resynthesised and HPLC purified
Kd (transferrin [18]): 78.9 µM

KMRTITYYHLQAILKQRGSC (Unpurified library peptide) [peptide of FIG. 60F]
binding result (transferrin [19]): binds

B6: synbody comprising TRF-26 and TRF-23 (Example 9, lysine-linked) (designed binder)
peptide 1: AHKVVPQRQIRHAYNRYGSG
peptide 2: FRGWAHIFFGPHVIYRGGSG
modifications: not fully specified (bridges); also: C-termini joined to alpha or epsilon amines of branching Lys, orientation not given here, followed by C-terminal Cys, Gly or Ala, not given here which
notes: probably the same construct family as SYN23-26
Kd (transferrin [20]): 0.15 µM

DRDTPWETTNKTEEGIEGSC (Unpurified library peptide) [peptide of FIG. 60J]
binding result (transferrin [21]): binds

QENDQQSFGLGGMMGQAGSC (Unpurified library peptide) [peptide of FIG. 60K]
binding result (transferrin [22]): binds
